Assay results reported in the RNAGym collection of RNA variant scans (doi:10.1021/acssynbio.7b00057).

B1: Pistol ribozyme (parent)
chain: GGGUCGUUGUUCCAUAAUCGCGUGGAUAUGGCACGCAAGUUUCUACCGGGCACCGUAAAUGUCCGACUGGAGCCGUUCGGGCGGCUAUAAACAGACCUCAGGCCCGAAGCGUGGCGGCACCUGCCGCCGGUGGUAAAAAAGAUCGGAAGAGCACACGUCU

Variants of: B1
Assay: aptazyme ON/OFF ratio, guanine; higher = stronger switching; co-transcriptional cleavage with and without guanine

Row | Variant | aptazyme ON/OFF ratio
1 | U7C U8C U10A U11A C12A C13G | 1.11
2 | U7C U8C U10A U11A C12A C13A | 1.1
3 | U7C U8C U10A U11A C12A C13U | 1.13
4 | U7C U8G G9A U10A C13A | 1.12
5 | U7C U8G G9A U10A C13G | 1.05
6 | U7C U8G G9A U10A C13U | 1.15
7 | U7C U8C U11G | 1.31
8 | U7C U8C U11A | 1.66
9 | U7C U8C U11C | 2.42
10 | U7C U8C U10G U11C C12U C13U | 1.29
11 | U7C U8C U10G U11C C12U C13G | 1.11
12 | U7C U8C U10G U11C C12U C13A | 1.2
13 | U7C U8C U11C C12G C13G | 1.31
14 | U7C U8C U11C C12G C13A | 1.4
15 | U7C U8C U11C C12G C13U | 1.33
16 | U7C U8C U11A C12U C13G | 1.13
17 | U7C U8C U11A C12U C13A | 1.16
18 | U7C U8C U11A C12U C13U | 1.37
19 | U7C U8G G9A U10A C12G | 1.18
20 | U7C U8G G9A U10A C12A | 1.26
21 | U7C U8G G9A U10A C12U | 1.19
22 | U7C U8C G9U U11G C12G C13U | 1.05
23 | U7C U8C G9U U11G C12G C13G | 1.14
24 | U7C U8C G9U U11G C12G C13A | 1.09

Row | Variant | aptazyme ON/OFF ratio
25 | U7C U8C U11A C12A | 1.34
26 | U7C U8C U11A C12U | 1.16
27 | U7C U8C U11A C12G | 1.14
28 | U7C U8C U10G U11G C12G C13A | 1.13
29 | U7C U8C U10G U11G C12G C13U | 1.14
30 | U7C U8C U10G U11G C12G C13G | 1.11
31 | U7C U8C U10C C12G C13U | 1.2
32 | U7C U8C U10C C12G C13G | 1.18
33 | U7C U8C U10C C12G C13A | 1.24
34 | U7C U8G | 1.35
35 | U7C U8C U10A U11G C12U C13A | 1.11
36 | U7C U8C U10A U11G C12U C13U | 1.15
37 | U7C U8C U10A U11G C12U C13G | 1.15
38 | U7C U8G C12U C13U | 1.3
39 | U7C U8G C12U C13G | 1.18
40 | U7C U8G C12U C13A | 1.22
41 | U7C U8G G9A U10A U11C C12U C13A | 1.14
42 | U7C U8G G9A U10A U11C C12U C13G | 1.08
43 | U7C U8C U10C U11G C13A | 1.2
44 | U7C U8C U10C U11G C13U | 1.34
45 | U7C U8C U10C U11G C13G | 1.24
46 | U7C U8C U10G U11G C13U | 1.16
47 | U7C U8C U10G U11G C13G | 1.11
48 | U7C U8C U10G U11G C13A | 1.24

Row | Variant | aptazyme ON/OFF ratio
49 | U7C U8C U10C U11G | 1.23
50 | U7C U8C U10C U11A | 1.9
51 | U7C U8C U10C U11C | 1.46
52 | U7C U8C U10G U11A C12G C13U | 1.09
53 | U7C U8C U10G U11A C12G C13G | 1.11
54 | U7C U8C U10G U11A C12G C13A | 1.08
55 | U7C U8G C12G C13G | 1.08
56 | U7C U8G C12G C13U | 1.17
57 | U7C U8G C12G C13A | 1.09
58 | U7C U8C U10G C12A C13A | 1.1
59 | U7C U8C U10G C12A C13G | 1.08
60 | U7C U8C U10G C12A C13U | 1.12
61 | U7C U8C U10C U11G C12A C13A | 1.32
62 | U7C U8C U10C U11G C12A C13G | 1.27
63 | U7C U8C U10C U11G C12A C13U | 1.52
64 | U7C U8C U10G U11C C12G | 1.4
65 | U7C U8C U10G U11C C12U | 1.22
66 | U7C U8C U10G U11C C12A | 1.41
67 | U7C U8C U10C U11A C12U C13A | 1.33
68 | U7C U8C U10C U11A C12U C13U | 1.29
69 | U7C U8C U10C U11A C12U C13G | 1.25
70 | U7C U8G G9A U10A U11A C12U C13A | 1.17
71 | U7C U8G G9A U10A U11A C12U C13U | 1.16
72 | U7C U8G G9A U10A U11A C12U C13G | 1.17

Row | Variant | aptazyme ON/OFF ratio
73 | U7C U8C U10A U11A C12U | 1.16
74 | U7C U8C U10A U11A C12A | 1.19
75 | U7C U8C U10A U11A C12G | 1.24
76 | U7C U8C U10C U11A C13G | 1.18
77 | U7C U8C U10C U11A C13U | 1.31
78 | U7C U8C U10C U11A C13A | 1.33
79 | U7C U8C U10A U11C C12G | 1.26
80 | U7C U8C U10A U11C C12U | 1.05
81 | U7C U8C U10A U11C C12A | 1.29
82 | U7C U8C U10C U11A C12G C13A | 1.15
83 | U7C U8C U10C U11A C12G C13U | 1.2
84 | U7C U8C U10C U11A C12G C13G | 1.29
85 | U7C U8C U10A U11C C12U C13U | 1.07
86 | U7C U8C U10A U11C C12U C13G | 1.1
87 | U7C U8C U10A U11C C12U C13A | 1.08
88 | U7C U8C U10C U11C C12A C13U | 1.24
89 | U7C U8C U10C U11C C12A C13A | 1.34
90 | U7C U8C U10C U11C C12A C13G | 1.24
91 | U7C U8G G9A U10A U11C C12A C13A | 1.15
92 | U7C U8G G9A U10A U11C C12A C13U | 1.17
93 | U7C U8G G9A U10A U11C C12A C13G | 1.15
94 | U7C U8C G9U U11G C12U C13G | 1.07
95 | U7C U8C G9U U11G C12U C13A | 1.1
96 | U7C U8C G9U U11G C12U C13U | 1.09

Row | Variant | aptazyme ON/OFF ratio
97 | U7C U8C U10A C12A C13G | 1.06
98 | U7C U8C U10A C12A C13U | 1.04
99 | U7C U8C U10A C12A C13A | 1.05
100 | U7C U8C U11C C12U C13U | 1.43
101 | U7C U8C U11C C12U C13A | 1.37
102 | U7C U8C U11C C12U C13G | 1.2
103 | U7C U8C U11A C12G C13G | 1.12
104 | U7C U8C U11A C12G C13A | 1.13
105 | U7C U8C U11A C12G C13U | 1.12
106 | U7C U8C U10A | 1.35
107 | U7C U8C U10G | 1.98
108 | U7C U8C U10C | 1.26
109 | U7C U8C U10G U11G | 1.49
110 | U7C U8C U10G U11C | 1.39
111 | U7C U8C U10G U11A | 1.24
112 | U7C U8C U10G C12G C13G | 1.11
113 | U7C U8C U10G C12G C13U | 1.13
114 | U7C U8C U10G C12G C13A | 1.11
115 | U7C U8C U10C U11C C12A | 1.24
116 | U7C U8C U10C U11C C12G | 1.2
117 | U7C U8C U10C U11C C12U | 1.26
118 | U7C U8C U10C U11A C12A C13U | 1.45
119 | U7C U8C U10C U11A C12A C13G | 1.17
120 | U7C U8C U10C U11A C12A C13A | 1.33

Row | Variant | aptazyme ON/OFF ratio
121 | U7C U8C U10A U11G C12G | 1.41
122 | U7C U8C U10A U11G C12U | 1.25
123 | U7C U8C U10A U11G C12A | 1.13
124 | U7C U8G C12A | 1.63
125 | U7C U8G C12G | 1.29
126 | U7C U8G C12U | 2.44
127 | U7C U8G G9A C12G | 1.29
128 | U7C U8G G9A C12U | 1.19
129 | U7C U8G G9A C12A | 1.34
130 | U7C U8C U11A C12A C13U | 1.31
131 | U7C U8C U11A C12A C13G | 1.15
132 | U7C U8C U11A C12A C13A | 1.2
133 | U7C U8G G9A U10A | 1.18
134 | U7C U8C U10C U11A C12U | 1.32
135 | U7C U8C U10C U11A C12G | 1.05
136 | U7C U8C U10C U11A C12A | 1.31
137 | U7C U8C U10C U11C C12U C13G | 1.15
138 | U7C U8C U10C U11C C12U C13U | 1.19
139 | U7C U8C U10C U11C C12U C13A | 1.31
140 | U7C U8G G9A C13G | 1.05
141 | U7C U8G G9A C13A | 1.14
142 | U7C U8G G9A C13U | 1.11
143 | U7C U8C U10G U11G C12U | 1.22
144 | U7C U8C U10G U11G C12A | 1.26

Row | Variant | aptazyme ON/OFF ratio
145 | U7C U8C U10G U11G C12G | 1.2
146 | U7C U8C U10A C12U C13G | 1.06
147 | U7C U8C U10A C12U C13A | 1.06
148 | U7C U8C U10A C12U C13U | 1.03
149 | U7C U8C U10C C12A C13U | 1.35
150 | U7C U8C U10C C12A C13A | 1.6
151 | U7C U8C U10C C12A C13G | 1.14
152 | U7C U8C U11G C13G | 1.28
153 | U7C U8C U11G C13U | 1.3
154 | U7C U8C U11G C13A | 1.24
155 | U7C U8C U11G C12G C13G | 1.16
156 | U7C U8C U11G C12G C13U | 1.09
157 | U7C U8C U11G C12G C13A | 1.1
158 | U7C U8G G9A U10A U11A C12G C13U | 1.21
159 | U7C U8G G9A U10A U11A C12G C13A | 1.12
160 | U7C U8G G9A U10A U11A C12G C13G | 1.21
161 | U7C U8C U11G C12A | 1.35
162 | U7C U8C U11G C12G | 1.33
163 | U7C U8C U11G C12U | 1.25
164 | U7C U8G G9A U10A U11A C12A C13A | 1.2
165 | U7C U8G G9A U10A U11A C12A C13U | 1.21
166 | U7C U8G G9A U10A U11A C12A C13G | 1.2
167 | U7C U8C U10G C13G | 1.08
